# Laboratory results as given in publication PMC3613427.
# Assays:
# [1] = target: formate channel FocA from Vibrio cholerae (Vibrio cholerae); assay: crystal structure
# [2] = target: formate channel FocA from Vibrio cholerae (Vibrio cholerae); assay: SEC-MALS
substance,measurement,setting,value
formate channel FocA from Vibrio cholerae (natural protein),stoichiometry N,[1],5
same,stoichiometry N,[2],5
